From patent US20250297004A1, “NECTIN-4 BINDING AGENTS” (INNATE PHARMA, priority 2022, published 2025)
Substitutions are numbered along the chain they refer to.

T1: human Nectin-4 Mutant 4 (A72P/G73N/G75S) (Homo sapiens, UniProt Q96NY8, A72P/G73N/G75S)
T1 construct: expressed in transfected cells; host or cells: HEK293T
T1 sequence (Q96NY8 32-510 A72P/G73N/G75S): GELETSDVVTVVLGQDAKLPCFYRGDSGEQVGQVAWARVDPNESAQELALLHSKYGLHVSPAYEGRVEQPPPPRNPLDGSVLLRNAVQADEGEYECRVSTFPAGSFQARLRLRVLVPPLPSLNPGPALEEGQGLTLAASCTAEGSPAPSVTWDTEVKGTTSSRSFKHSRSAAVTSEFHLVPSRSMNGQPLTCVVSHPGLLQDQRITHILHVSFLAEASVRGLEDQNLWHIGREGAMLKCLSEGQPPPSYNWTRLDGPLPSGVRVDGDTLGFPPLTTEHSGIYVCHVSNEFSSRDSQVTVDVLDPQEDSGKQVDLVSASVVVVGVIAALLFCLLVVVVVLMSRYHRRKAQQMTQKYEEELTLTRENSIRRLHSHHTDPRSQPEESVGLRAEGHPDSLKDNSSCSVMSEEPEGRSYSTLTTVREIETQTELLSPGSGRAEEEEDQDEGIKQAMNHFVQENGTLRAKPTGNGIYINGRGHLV

T2: human Nectin-4 Mutant 7bis (A72P/G73N/K197T/S199A) (Homo sapiens, UniProt Q96NY8, A72P/G73N/K197T/S199A)
T2 construct: expressed in transfected cells; host or cells: HEK293T
T2 sequence (Q96NY8 32-510 A72P/G73N/K197T/S199A): T1 sequence (Q96NY8 32-510 A72P/G73N/G75S) with S44G, K166T, S168A

T3: human Nectin-4 Mutant 7 (S195A/K197T/S199A) (Homo sapiens, UniProt Q96NY8, K197T/S195A/S199A)
T3 construct: expressed in transfected cells; host or cells: HEK293T
T3 sequence (Q96NY8 32-510 S195A/K197T/S199A): T1 sequence (Q96NY8 32-510 A72P/G73N/G75S) with P41A, N42G, S44G, S164A, K166T, S168A

T4: human Nectin-4 Mutant 8 (T190A/T191Q/S193A) (Homo sapiens, UniProt Q96NY8, S193A/T190A/T191Q)
T4 construct: expressed in transfected cells; host or cells: HEK293T
T4 sequence (Q96NY8 32-510 T190A/T191Q/S193A): T1 sequence (Q96NY8 32-510 A72P/G73N/G75S) with P41A, N42G, S44G, T159A, T160Q, S162A

B1: N41 (antibody, V domains shown)
VH: QVQLKQSGPGLVQPSQSLSITCTVSGFSLTNYGVHWVRQSPGKGLEWLGVIWSGGSTDYNAAFISRLSISKDTSKSQVFFKMNSLQADDTAIYYCARELIHAMDNWGQGTSVTVSS
VL: DIQMTQSPASLSVSVGETVTITCRASENIYSNLAWYQQKQGNSPQLLVFAATNLADGVPSRFSGSGSGTQYSLKINSLQSEDFGTYYCQHFWGTPTFGGGTKLEIK
B2: 5E7 (antibody, V domains shown)
VH: QVQLQQPGAELVKPGASVKLSCKASGYIFTSYWMHWVKQRPGQGLEWIGEIDPSDSYTNYNQKFKGKATLTLDKSSSTTYMQLSSLTSEDSAVYYCVRGYGNYGDYWGQGTTLTVSSASTKGP
VL: DVVMTQAAFSNPVTLGTSASISCRSSKSLLHSNGITYLYWYLQKPGQSPQLLIYQMSNLASGVPDRFSSSGSGTDFTLRISRVEAEDVGVYYCAQNLELPWTFGGGTKLEIKRTVAAP

Tests used:
Experiment in all cases: Epitope mapping using Nectin-4 point mutants
Format in all cases: binding
[1] = molecular target: T1, human Nectin-4 Mutant 4 (A72P/G73N/G75S)
From the text: (§1) Combined with the published structures of the Nectin-4 domains, Nectin-4 mutations at surface exposed amino acids residues were designed. Nectin-4 domain structure was modelled based on Protein Data Bank reference: 4FRW (domains V et C1). Human Nectin-4 used was NCBI Reference Sequence: NP_112178.2, mouse Nectin-4 used was NCBI Reference Sequence: AAL79833.1, cynomolgus Nectin-4 used was NCBI Reference Sequence: XP_005541277.1, rat Nectin-4 used was NCBI Reference Sequence: NP_001102546.1. The cells expressing the Nectin-4 mutants are then be used for testing anti-Nectin-4 antibodies for loss of binding to different Nectin-4 mutants to identify antibodies that bind to the same site on Nectin-4. […] FIGS. 8A and 8B show different view of a molecular model of the human Nectin-4 protein, indicating the position of substituted residues in mutants 1, 2, 3, 4, 5, 6, 7, 8 and 9.
(§2) Nectin-4 mutants were generated by PCR. The sequences amplified were run on agarose gel and purified using the Macherey Nagel PCR Clean-Up Gel Extraction kit. The purified PCR products generated for each mutant were then ligated into an expression vector, with the ClonTech InFusion system. The vectors containing the mutated sequences were prepared as Miniprep and sequenced. After sequencing, the vectors containing the mutated sequences were prepared as Midiprep using the Promega PureYield™ Plasmid Midiprep System. HEK293T cells were grown in DMEM medium (Invitrogen), transfected with vectors using Invitrogen's Lipofectamine 2000 and incubated at 37° C. in a CO2 incubator for 48 hours prior to testing for transgene expression. The targeted amino acid mutations are shown in Table 13 below, listing the residue present in wild-type Nectin-4/position of residue/residue present in mutant Nectin-4, with position reference being to the Nectin-4 protein with leader peptide shown in SEQ ID NO: 1.
(§3) (+) means that antibodies-Nectin-4 association occurs.

[2] = molecular target: T2, human Nectin-4 Mutant 7bis (A72P/G73N/K197T/S199A)
From the text: as §1, §2, §3

[3] = molecular target: T3, human Nectin-4 Mutant 7 (S195A/K197T/S199A)
From the text: as §1, §2, §3

[4] = molecular target: T4, human Nectin-4 Mutant 8 (T190A/T191Q/S193A)
From the text: as §1, §2, §3

[5] = tested on: human Nectin-4 Mutant 5 (A158P/E160G/S243A/F244S); settings: results irrelevant due to an absence of expression of said protein
From the text: as §1, §2, §3

Molecule | association with Mutant 4 [1] | association with Mutant 7bis [2] | association with Mutant 7 [3] | association with Mutant 8 [4] | association with Mutant 5 [5]
B1 | + | + | + | + | −
B2 | + | − | − | + | −
